Measured values: patent US12310324B2, “Compositions and methods for minimizing nornicotine synthesis in tobacco” (North Carolina State University, priority 2010, dated 2025)
Changes are numbered by the printed parent chain. Names and notes keep the numbering of the source. Marks after values point to notes of the source that are not given here.

Tests used:
[1] = test system: CN1CCC[C@H]1c1cccnc1; test: Nicotine demethylase assay, yeast microsomal membrane preparations incubated with [^14C]-nicotine, products resolved by thin layer chromatography; assay type: biochemical, Nicotiana tabacum; conditions: other: substrate saturation curve across a wide range of [^14C]-nicotine concentrations; microsomes from yeast strain W(R) expressing CYP82E10 cDNA
Text: (§1) To determine whether CYP82E10 functions as a nicotine demethylase gene, its cDNA was cloned into the yeast expression vector pYeDP60 and transformed into yeast strain W(R). Strain W(R) is a yeast cell line that was engineered to overexpress the yeast NADPH-dependent P450 reductase, an enzyme that serves as the direct electron donor to P450s; this system greatly enhances the detection of foreign P450 enzyme activities that are expressed in yeast (Pompon et al., 1995). Nicotine demethylase assays were conducted by incubating yeast microsomal membrane preparations with [^14C]-nicotine, and resolving the products by thin layer chromatography as described in Siminszky et al. (2005).

[2] = test system: CYP82E10 nicotine demethylase; test: Nicotine demethylase assay, yeast microsomal membranes with [14C]-nicotine, CYP82E10 and variants; assay type: biochemical, tobacco; design: Activity of Mutant Enzyme: concentration or dose not given beside the values; conditions: for Activity of Mutant Enzyme: relative to the wild type enzyme when expressed in yeast; for nicotine demethylase (enzyme) activity, result in words: [14C]-nicotine
Text: as §1
The nucleotide and amino acid residues mutated in these plants are also highlighted in FIG. 1. Although no truncation mutations were observed among these individuals, in several cases, mutations were identified that altered an amino acid residue within a highly conserved region of the enzyme. To determine the effects of a particular mutation on CYP82E10 enzyme activity, site-directed mutagenesis was used to introduce the specific mutations corresponding to seven of the nine mutations shown in Table 2 into the CYP82E10 cDNA within the pYeDP60 yeast expression vector. Microsomal preparations from yeast strains expressing each of the seven CYP82E10 variants were assayed in vitro for nicotine demethylase activity using both non-saturating (2.45 μM) and saturating (50 μM) concentrations of [^14C]-nicotine.

[3] = test system: CYP82E4 nicotine demethylase
[4] = test system: CYP82E4v2 nicotine demethylase; assay type: biochemical, tobacco; conditions: counts per minute of [14C]-nornicotine/mg microsomal protein; ± SD of two technical replications
Text: as §1
The thin layer chromatographic data for the in vitro yeast expression assays corresponding to the plant 1041 mutation are shown in FIG. 3. This particular mutation was selected for more extensive investigation. To provide additional confirmation that the Pro to Ser substitution at amino acid position 381 that defines the plant 1041 mutation is incompatible with nicotine demethylation function, this same mutation was introduced into a CYP82E4v2 cDNA that had been similarly cloned into the pYeDP60 vector. […] Whether introduced into the CYP82E10 or CYP82E4v2 enzymes, a Ser substitution for Pro at position 381 leads to the complete ablation of nicotine demethylase activity in this assay.

[5] = test system: CYP82E5 nicotine demethylase; test: Nicotine demethylase activity of CYP82E5 variants (method not described); assay type: biochemical, tobacco

Molecule: Nicotiana tabacum CYP82E10 nicotine demethylase, wild type, SEQ ID NO:2 (Nicotiana tabacum)
- Km [1]: 3.9 µM

B1: Plant 1512: CYP82E10 mutant enzyme P107S (mutation C319T) from EMS treated DH98-325-6 plant 1512 (protein, listed as Nicotiana tabacum)
chain: MVSPVEAIVGLVTLTLLFYFIRTKKSQKPSKPLPPKIPGGWPVIGHLFYFDDDSDDRPLARKLGDLADKYGPVFTFRLGLPLVLVVSSYEAIKDCFSTNDAIFSNRSAFLYGEYLGYNNAMLFLTKYGPYWRKNRKLVIQEVLCASRLEKLKHVRFGEIQTSIKNLYTRIDGNSSTINLTDWLEELNFGLIVKMIAGKNYESGKGDEQVERFRKAFKDFIILSMEFVLWDAFPIPLFKWVDFQGHVKAMKRTFKDIDSVFQNWLEEHVKKKEKMEVNAEGNEQDFIDVVLSKMSNEYLDEGYSRDTVIKATVFSLVLDAADTVALHMNWGMALLINNQHALKKAQEEIDKKVGKDRWVEESDIKDLVYLQTIVKEVLRLYPPGPLLVPHENVEDCVVSGYHIPKGTRLFANVMKLQRDPKLWSNPDKFDPERFFAADIDFRGQHYEFIPFGSGRRSCPGMTYAMQVEHLTIAHLIQGFNYKTPNDEPLDMKEGAGLTIRKVNPIEVVITPRLTPELY
modifications: CYP82E10 P107S Variant
- loss of nicotine demethylase activity from mutation (knocked out) [2]: 100%
- Activity of Mutant Enzyme [2]: Not detected
- nicotine demethylase (enzyme) activity, result in words ([2]; yeast microsomes): complete enzyme inactivation

B2: Plant 1442: CYP82E10 mutant enzyme P419S (mutation C1255T) from plant 1442 (protein, listed as Nicotiana tabacum)
chain: B1 chain with S107P, P419S
modifications: CYP82E10 P419S Variant
- nicotine demethylase activity relative to the wild-type CYP82E10 polypeptide [2]: about 25%
- Activity of Mutant Enzyme [2]: 25%
- reduction in activity compared to the wild type CYP82E10 enzyme ([2]; yeast microsomes, 2.45 μM and 50 μM [14C]-nicotine): 75%

B3: Plant 2476: CYP82E10 mutant enzyme G79S (mutation G235A) from EMS treated DH98-325-6 plant 2476 (protein, listed as Nicotiana tabacum)
chain: B1 chain with G79S, S107P
modifications: CYP82E10 G79S Variant
- loss of nicotine demethylase activity from mutation (knocked out) [2]: 100%
- Activity of Mutant Enzyme [2]: Not detected
- nicotine demethylase (enzyme) activity, result in words ([2]; yeast microsomes): complete enzyme inactivation

B4: CYP82E4 K364N: CYP82E4 variant with asparagine for lysine at position 364 (protein, listed as Nicotiana tabacum)
chain: MLSPIEAIVGLVTFTFLFFFLWTKKSQKPSKPLPPKIPGGWPVIGHLFHFNDDGDDRPLARKLGDLADKYGPVFTFRLGLPLVLVVSSYEAVKDCFSTNDAIFSNRPAFLYGDYLGYNNAMLFLANYGPYWRKNRKLVIQEVLSASRLEKFKHVRFARIQASIKNLYTRIDGNSSTINLTDWLEELNFGLIVKMIAGKNYESGKGDEQVERFKKAFKDFMILSMEFVLWDAFPIPLFKWVDFQGHVKAMKRTFKDIDSVFQNWLEEHINKREKMEVNAEGNEQDFIDVVLSKMSNEYLGEGYSRDTVIKATVFSLVLDAADTVALHINWGMALLINNQKALTKAQEEIDTKVGKDRWVEESDINDLVYLQAIVKEVLRLYPPGPLLVPHENVEDCVVSGYHIPKGTRLFANVMKLQRDPKLWSDPDTFDPERFIATDIDFRGQYYKYIPFGSGRRSCPGMTYALQVEHLTMAHLIQGFNYRTPNDEPLDMKEGAGITIRKVNPVELIIAPRLAPELY
modifications: CYP82E4 K364N Variant
- inhibition of nicotine demethylase activity (knocked out) [3]: 100%

B5: CYP82E4 P458S: CYP82E4 variant with serine for proline at position 458 (protein, listed as Nicotiana tabacum)
chain: B4 chain with N364K, P458S
modifications: CYP82E4 P458S Variant
- inhibition of nicotine demethylase activity (knocked out) [3]: 100%

B6: pYeDP60-CYPE4v2: wild type senescence-induced tobacco nicotine demethylase CYP82E4v2 expressed in yeast (protein, listed as Nicotiana tabacum)
chain: B4 chain with N364K, G459R
- CPM nornicotine at 2.45 μM [14C]-nicotine substrate [4]: 1,813 ± 623^b CPM
- CPM nornicotine at 50.0 μM [14C]-nicotine substrate [4]: 5,383 ± 505 CPM

B7: pYeDP60-CYPE4v2/1041: CYP82E4v2 enzyme possessing the 1041 mutation (Pro381Ser) (protein, listed as Nicotiana tabacum)
chain: B4 chain with N364K, P382S
modifications: CYP82E4 P382S Variant
- CPM nornicotine at 2.45 μM [14C]-nicotine substrate [4]: Not detected
- CPM nornicotine at 50.0 μM [14C]-nicotine substrate [4]: Not detected
- inhibition of nicotine demethylase activity (knocked out) [3]: 100%

B8: SEQ ID NO:33: CYP82E5 variant with stop codon for tryptophan at position 422 (protein, listed as Nicotiana tabacum)
chain: MVSPVEAIVGLVTLTLLFYFLWPKKFQIPSKPLPPKIPGGWPVIGHLFYFDDDGDDRPLARKLGDLADKYGPVFTFRLGLPLVLVVSSYEAVKDCFSTNDAIFSNRPAFLYGEYLGYSNAMLFLTKYGPYWRKNRKLVIQEVLSASRLEKLKHVRFGKIQTSIKSLYTRIDGNSSTINLTDWLEELNFGLIVKMIAGKNYESGKGDEQVERFRKAFKDFIILSMEFVLWDAFPIPLFKWVDFQGHVKAMKRTFKDIDSVFQNWLEEHVKKREKMEVNAQGNEQDFIDVVLSKMSNEYLDEGYSRDTVIKATVFSLVLDAADTVALHMNWGMALLINNQHALKKAQEEIDKKVGKERWVEESDIKDLVYLQAIVKEVLRLYPPGPLLVPHENVEDCVVSGYHIPKGTRLFANVMKLQRDPKL
modifications: CYP82E5 W422Stop Variant
- inhibition of nicotine demethylase activity (knocked out) [5]: 100%

B9: CYP82E4 W329Stop: CYP82E4 variant with stop codon for tryptophan at position 329 (protein, listed as Nicotiana tabacum)
chain: MLSPIEAIVGLVTFTFLFFFLWTKKSQKPSKPLPPKIPGGWPVIGHLFHFNDDGDDRPLARKLGDLADKYGPVFTFRLGLPLVLVVSSYEAVKDCFSTNDAIFSNRPAFLYGDYLGYNNAMLFLANYGPYWRKNRKLVIQEVLSASRLEKFKHVRFARIQASIKNLYTRIDGNSSTINLTDWLEELNFGLIVKMIAGKNYESGKGDEQVERFKKAFKDFMILSMEFVLWDAFPIPLFKWVDFQGHVKAMKRTFKDIDSVFQNWLEEHINKREKMEVNAEGNEQDFIDVVLSKMSNEYLGEGYSRDTVIKATVFSLVLDAADTVALHIN
modifications: CYP82E4 W329Stop Variant
- inhibition of nicotine demethylase activity (knocked out) [3]: 100%

B10: CYP82E5 P449L: CYP82E5 variant with leucine for proline at position 449 (protein, listed as Nicotiana tabacum)
chain: MVSPVEAIVGLVTLTLLFYFLWPKKFQIPSKPLPPKIPGGWPVIGHLFYFDDDGDDRPLARKLGDLADKYGPVFTFRLGLPLVLVVSSYEAVKDCFSTNDAIFSNRPAFLYGEYLGYSNAMLFLTKYGPYWRKNRKLVIQEVLSASRLEKLKHVRFGKIQTSIKSLYTRIDGNSSTINLTDWLEELNFGLIVKMIAGKNYESGKGDEQVERFRKAFKDFIILSMEFVLWDAFPIPLFKWVDFQGHVKAMKRTFKDIDSVFQNWLEEHVKKREKMEVNAQGNEQDFIDVVLSKMSNEYLDEGYSRDTVIKATVFSLVLDAADTVALHMNWGMALLINNQHALKKAQEEIDKKVGKERWVEESDIKDLVYLQAIVKEVLRLYPPGPLLVPHENVEDCVVSGYHIPKGTRLFANVMKLQRDPKLWSNPDKFDPERFFADDIDYRGQHYEFILFGSGRRSCPGMTYALQAEHLTIAHLIQGFNYKTPNDEPLDMKEGAGLTIRKVNPVEVTITARLAPELY
modifications: CYP82E5 P449L
- effect of mutation on nicotine demethylase activity, in words [5]: inhibition of its nicotine demethylase activity
